To fix the notation:
B2: GFP-Ait1 (natural protein, S. cerevisiae, UniProt Q12301 1-547, looked up)
chain: MVRLNHAASYFMPIFCSTRPHIVILSALFSISLFSLFYASSELLLHQYDDPLMFKPNSQDYFRTFLLGLFSPFLYYFLKTFLFNINQRFLILNLIVDFPINDVFMLLILIGLAYPQVQDHEGGTIKHKECSWHIIPRQAYIFGISWALGEFTICIIGNLFNYQEIADPNINSGFTHQESANTYCNNNDMSHNDDCGCSTEYRPNVVDRSDITLSKCIEVRNDSSSISNNVYSSEYHPIKPLRSSSSTYGSIRQQPHENKKQLHVPDNSQDDTIIMMNPIDNSLKLTTLDTGDLSFPIDEEQPILKKSFGYTWAVPNENTQNTTKSFTPIKRFIAFSTAYQLVTGLLLMILVVGSNIMLTIGESLILSMYFVYVRGHEGLFTPVVNYFGSRTISNFILCVIIPFISLNFLINTSIYLRRELDDWFNNSQGEFEDDDENTISKRVATNQEYQHPLSANYISMDSPDVINSSPGHFGMNSGQLLGNTTLYYGSLNGDDDDMTNDSALLRFCKKLVKNWRALARNDSFVLGVMVSWSLLVFVTGILSTVYI
notes: Ait1 (Ydl180w), GPCR-like protein of the vacuolar membrane, S. cerevisiae; The strain list is in Supplementary file 3; source: S. cerevisiae (W303) strain carrying GFP-Ait1, in lysate; not shown: GFP, N-terminal, kept

The test “GFP-Ait1” deals with B2. Description: co-IP; GFP-Ait1 or GFP-Ait1C3v2 immunopurified on anti-GFP beads in nonionic detergent (digitonin) without a crosslinker; blot with anti-Myc and anti-GFP; log phase, 30 min amino acid starvation, long-term amino acid and glucose starvation. The conditions noted are these: partners not purified.
In a further test the target is T1, Kog1-FLAG (S. cerevisiae, UniProt P38873 1-1557).
T1 construct: Kog1 (Raptor homolog), subunit of TORC1, S. cerevisiae; Bait on anti-FLAG beads; The strain list is in Supplementary file 3; also called Kog1/Raptor; TORC1 subunit Kog1; source: S. cerevisiae (W303) strain carrying Kog1-FLAG, in lysate
Description: co-IP; Kog1-FLAG immunopurified on anti-FLAG beads after DSP crosslinking; blot with anti-GFP and anti-FLAG; with and without amino acids, long-term amino acid and glucose starvation, also with 4x protease inhibitors. The conditions noted are these: partners not purified.

T1 sequence (P38873 whole entry): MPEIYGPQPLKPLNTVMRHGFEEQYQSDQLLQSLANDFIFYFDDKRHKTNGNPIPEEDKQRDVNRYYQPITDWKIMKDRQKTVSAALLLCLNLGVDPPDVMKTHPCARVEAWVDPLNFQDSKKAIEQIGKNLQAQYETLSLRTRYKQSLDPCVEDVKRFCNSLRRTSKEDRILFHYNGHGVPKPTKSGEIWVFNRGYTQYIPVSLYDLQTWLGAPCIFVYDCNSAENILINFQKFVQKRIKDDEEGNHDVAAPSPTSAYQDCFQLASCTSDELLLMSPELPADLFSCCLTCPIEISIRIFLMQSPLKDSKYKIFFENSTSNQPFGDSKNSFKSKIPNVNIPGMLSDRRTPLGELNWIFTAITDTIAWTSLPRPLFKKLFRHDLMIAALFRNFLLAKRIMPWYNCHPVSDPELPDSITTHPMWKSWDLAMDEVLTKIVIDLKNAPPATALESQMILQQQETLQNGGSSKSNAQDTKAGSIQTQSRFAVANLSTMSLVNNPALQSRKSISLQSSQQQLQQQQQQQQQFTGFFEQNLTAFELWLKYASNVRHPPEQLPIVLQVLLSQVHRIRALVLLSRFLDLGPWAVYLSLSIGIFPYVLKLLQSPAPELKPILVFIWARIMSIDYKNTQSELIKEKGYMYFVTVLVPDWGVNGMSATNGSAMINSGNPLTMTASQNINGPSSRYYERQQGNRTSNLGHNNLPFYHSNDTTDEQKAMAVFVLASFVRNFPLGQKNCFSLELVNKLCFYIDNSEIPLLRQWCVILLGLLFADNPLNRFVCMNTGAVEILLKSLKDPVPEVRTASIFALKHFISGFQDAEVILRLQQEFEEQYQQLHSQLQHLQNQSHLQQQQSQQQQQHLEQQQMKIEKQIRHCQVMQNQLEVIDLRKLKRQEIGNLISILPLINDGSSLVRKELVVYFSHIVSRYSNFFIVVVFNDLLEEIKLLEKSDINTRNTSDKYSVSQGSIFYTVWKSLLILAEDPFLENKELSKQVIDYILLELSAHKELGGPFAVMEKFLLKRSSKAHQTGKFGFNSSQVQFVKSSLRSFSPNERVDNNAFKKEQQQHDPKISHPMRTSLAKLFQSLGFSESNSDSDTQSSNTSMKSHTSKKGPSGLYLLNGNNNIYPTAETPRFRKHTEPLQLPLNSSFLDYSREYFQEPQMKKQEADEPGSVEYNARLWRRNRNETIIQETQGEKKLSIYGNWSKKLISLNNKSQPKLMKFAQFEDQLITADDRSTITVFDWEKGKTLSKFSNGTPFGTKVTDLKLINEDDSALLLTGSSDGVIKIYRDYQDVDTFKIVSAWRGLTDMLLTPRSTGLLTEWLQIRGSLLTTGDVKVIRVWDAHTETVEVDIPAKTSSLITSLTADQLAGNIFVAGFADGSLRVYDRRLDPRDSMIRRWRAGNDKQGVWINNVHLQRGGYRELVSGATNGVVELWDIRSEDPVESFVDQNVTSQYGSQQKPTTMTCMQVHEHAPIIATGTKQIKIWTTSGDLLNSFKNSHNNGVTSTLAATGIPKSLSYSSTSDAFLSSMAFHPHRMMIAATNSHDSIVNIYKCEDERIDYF

B1: Gtr1-myc (natural protein, S. cerevisiae, UniProt Q00582 1-310, looked up)
chain: MSSNNRKKLLLMGRSGSGKSSMRSIIFSNYSAFDTRRLGATIDVEHSHLRFLGNMTLNLWDCGGQDVFMENYFTKQKDHIFQMVQVLIHVFDVESTEVLKDIEIFAKALKQLRKYSPDAKIFVLLHKMDLVQLDKREELFQIMMKNLSETSSEFGFPNLIGFPTSIWDESLYKAWSQIVCSLIPNMSNHQSNLKKFKEIMNALEIILFERTTFLVICSSNGENSNENHDSSDNNNVLLDPKRFEKISNIMKNFKQSCTKLKSGFKTLILNNNIYVSELSSNMVCFIVLKDMNIPQELVLENIKKAKEFFQ
notes: Gtr1, small GTPase (homolog of RagA/B), S. cerevisiae; also called Gtr1/2; source: S. cerevisiae (W303) strain carrying Gtr1-myc, in lysate
B1: the “amount copurified after long-term amino acid and glucose starvation, relative to log-phase growth” value in the test with GFP-Ait1 is 60 % of the level found in log-phase growth.

As to B2, the “amount copurified after long-term amino acid and glucose starvation, relative to log-phase growth” value with Kog1-FLAG was 50 % of the level found in log-phase growth.

(Values after PMC9499541, “Ait1 regulates TORC1 signaling and localization in budding yeast” (eLife, 2022).)
